# Test results published in PMC3742456.
# Molecular target: c-kit receptor (CD117), expressed on BJAB c-kit cells (Mus musculus) (UniProt P05532)
# Assay: flow cytometry (cell titration, 0-100 nM)
# Settings: apparent Kd on BJAB c-kit cells, background subtracted; Aptamer folded in SELEX buffer (DPBS with Ca/Mg, 5 mM MgCl2, 0.45% glucose, tRNA), 95 C then …; binding in DPBS with Ca/Mg + 0.1% BSA, 1 h on ice; FAM
# Chain of UniProt P05532 (P05532 25-979): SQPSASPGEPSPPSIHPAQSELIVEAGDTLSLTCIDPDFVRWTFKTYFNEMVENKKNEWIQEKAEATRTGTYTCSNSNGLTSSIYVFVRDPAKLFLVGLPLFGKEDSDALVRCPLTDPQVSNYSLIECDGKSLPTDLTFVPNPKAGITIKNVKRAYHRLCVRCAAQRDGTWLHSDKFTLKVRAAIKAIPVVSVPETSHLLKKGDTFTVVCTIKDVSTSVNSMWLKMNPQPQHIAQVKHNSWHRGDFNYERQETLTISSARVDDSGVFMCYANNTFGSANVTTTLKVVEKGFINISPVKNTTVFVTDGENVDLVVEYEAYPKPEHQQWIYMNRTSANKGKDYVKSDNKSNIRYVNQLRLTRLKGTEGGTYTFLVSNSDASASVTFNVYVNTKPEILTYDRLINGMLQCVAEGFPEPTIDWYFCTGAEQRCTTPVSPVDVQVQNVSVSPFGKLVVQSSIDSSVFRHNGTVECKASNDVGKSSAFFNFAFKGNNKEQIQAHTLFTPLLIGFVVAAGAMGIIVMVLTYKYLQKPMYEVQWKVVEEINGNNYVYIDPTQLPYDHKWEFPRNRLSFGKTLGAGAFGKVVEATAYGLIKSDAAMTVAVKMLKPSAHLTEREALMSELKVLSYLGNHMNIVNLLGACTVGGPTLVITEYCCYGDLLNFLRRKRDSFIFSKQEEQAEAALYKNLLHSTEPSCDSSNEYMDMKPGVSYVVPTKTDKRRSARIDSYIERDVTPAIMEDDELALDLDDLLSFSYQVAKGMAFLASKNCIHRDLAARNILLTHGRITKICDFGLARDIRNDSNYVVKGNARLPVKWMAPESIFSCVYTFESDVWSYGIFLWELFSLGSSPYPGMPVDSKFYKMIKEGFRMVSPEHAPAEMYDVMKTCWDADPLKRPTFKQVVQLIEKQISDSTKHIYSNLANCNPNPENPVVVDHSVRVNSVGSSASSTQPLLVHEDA
sequence,measurement,value
AGCAGCACAGAGGTCAGATGGCTCAACGCGGGACGGCTCTCCCATTGACCCTATGCGTGCTACCGTGAA [Kit-129],Kd,12.2 nM
